B2: BT1763 (SusC-like), full-length, in freshly purified BT1762-1763 complex (natural protein, Bacteroides thetaiotaomicron, UniProt Q8A6W3 26-1041, looked up)
chain: GQNITVKGNVTSKTDGQPIIGASVVETTATTNGTITDFDGNFTLSVPVNSTLKITYIGYKPVTVKAAAIVNVLLEEDTQMVDEVVVTGYTTQRKADLTGAVSVVKVDEIQKQGENNPVKALQGRVPGMNITADGNPSGSATVRIRGIGTLNNNDPLYIIDGVPTKAGMHELNGNDIESIQVLKDAASASIYGSRAANGVIIITTKQGKKGQIKINFDASVSASMYQSKMNVLNTEQYGRAMWQAYVNDGENPNGNALGYAYNWGYNADGNPVLYGMTLSKYLDSKNTMPVADTDWFDEITRTGVIQQYNLSVSNGSEKGSSFFSLGYYKNLGVIKDTDFDRFSARMNSDYKLIDDILTIGQHFTLNRTSEVQAPGGIIETALDIPSAIPVYASDGSWGGPVGGWPDRRNPRAVLEYNKDNRYTYWRMFGDAYVNLTPFKGFNLRSTFGLDYANKQARYFTYPYQEGTQTNNGKSAVEAKQEHWTKWMWNAIATYQLEVGKHRGDVMIGMELNREDDSHFSGYKEDFSILTPDYMWPDAGSGTAQAYGAGEGYSLVSFFGKMNYSYADRYLLSLTLRRDGSSRFGKNHRYATFPSVSLGWRITQENFMKELTWLDDLKLRASWGQTGNQEISNLARYTIYAPNYGTTDSFGGQSYGTAYDITGSNGGGVLPSGFKRNQIGNDNIKWETTTQTNVGIDFSLFKQSLYGSLEYYYKKATDILTEMAGVGVLGEGGSRWINSGAMKNQGFEFNLGYRNKTAFGLTYDLNGNISTYRNEILELPETVAANGKFGGNGVKSVVGHTYGAQVGYIADGIFKSQDEVDNHATQEGAAVGRIRYRDIDHNGVIDERDQNWIYDPTPSFSYGLNIYLEYKNFDLTMFWQGVQGVDIISDVKKKSDFWSASNVGFLNKGTRLLNAWSPTNPNSDIPALTRSDTNNEQRVSTYFVENGSFLKLRNIQLGYTVPAVISKKMRMDRLRFYCSAQNLLTIKSKNFTGEDPENPNFSYPIPVNITFGLNIGF

Legend:
[1] = biological target: BT2264 (SusC-like TonB-dependent transporter) (Bacteroides thetaiotaomicron); experiment: crystal structure
[2] = biological target: B2; experiment: SDS-PAGE of non-boiled samples
native MS = biological target: the molecule itself; experiment: native MS

For “BT2264 (SusC-like TonB-dependent transporter) (natural protein)”, the stoichiometry N [1] was 2.

B1: BT1762 (SusD-like) with C-terminal 4xAla linker and 6xHis-tag, native from B. theta (natural protein, Bacteroides thetaiotaomicron, UniProt Q8A6W4 19-570, looked up)
chain: CDDFLDRQVPQGIVTGDQIASPEYVDNLVISAYAIWATGDDINSSFSLWNYDVRSDDCYKGGSGTEDGGVFNALEISKGINTTDWNINDIWKRLYQCITRANTALQSLDQMDEKTYPLKNQRIAEMRFLRGHAHFMLKQLFKKIVIVNDENMEPDAYNELSNTTYTNDEQWQKIADDFQFAYDNLPEVQIEKGRPAQAAAAAYLAKTYLYKAYRQDGADNALTGINEEDLKQVVKYTDPLIMAKGGYGLETDYSMNFLPQYENGAESVWAIQYSINDGTYNGNLNWGMGLTTPQILGCCDFHKPSQNLVNAFKTDSQGKPLFSTYDNENYEVATDNVDPRLFHTVGMPGFPYKYNEGYIIQKNDDWSRSKGLYGYYVSLKENVDPDCDCLKKGSYWASSLNHIVIRYADVLLMRAEALIQLNDGRITDAISLINEVRSRAAGSTMLIFNYKEDYGVNFKVTPYDLKAYAQDEAMKMLKWERRVEFGMESSRFFDLVRWGEAKDVINAYYVTEASRCSIYKNAGFTENKNEYLPVPFEQISASNGNYTQNFGW
B1: binds [2].

In the case of B2, the “stoichiometry N” value (native MS) is reported as 2.
